Data as given in US12419937B2, “High concentration alpha-glucosidase compositions for the treatment of Pompe disease” (Amicus Therapeutics, Inc., priority 2012, dated 2025).

What was measured:
GAA KO mice [1] = test: rhGAA activity uptake after Myozyme® IV bolus in GAA KO mice (comparison study of Table 3); assay type: in vivo, mouse; conditions: 4 doses 20 mg/kg IV bolus at 2 week intervals, 3 days after the last dose
[2] = target: T1, recombinant human GAA (Myozyme®) (Homo sapiens, UniProt P10253); test: SYPRO Orange thermal stability assay (heat-induced denaturation); assay type: physicochemical; conditions: pH 5.2 vs pH 7.4; no ASSC
T1 construct: purchased Genzyme Corp
Excerpt: The thermal stability assay utilizes heat to induce protein denaturation, which is monitored using a SYPRO Orange dye that fluoresces upon binding to hydrophobic amino acids (which are not exposed in a folded protein).
FIG. 5 depicts the results of a thermal stability assay that utilizes heat to induce protein denaturation, which is monitored using a SYPRO Orange dye that fluoresces upon binding to hydrophobic amino acids (which are not exposed in a folded protein).
Denaturation is monitored using a SYPRO Orange dye that fluoresces upon binding to hydrophobic amino acids (which are not exposed in a folded protein).
The thermal stability was performed at pH 7.4 for two formulations, which corresponds to the pH of the ER.

[3] = reported; cited from earlier work
GAA KO mice [4] = test: Tissue glycogen reduction in GAA KO mice (Example 9); assay type: in vivo, mouse; conditions: Myozyme® 40 mg/kg IV every other week for 8 weeks ± 30 mg/kg oral 1-DNJ-HCl, relative to untreated mice
Experimental: Glycogen reduction with Myozyme® alone was 93±1%, 41±4%, 69±3%, and 18±4%, in heart (A), diaphragm (B), soleus (C), and quadriceps (D), respectively, relative to untreated mice.
Twelve-week old male GAA KO mice were administered a single dose of Myozyme® (40 mg/kg) via bolus tail vein injection every other week for 8 weeks. To prevent anaphylaxis, before the third and fourth Myozyme® injection, diphenhydramine (10 mg/kg intraperitoneally) was administered 10 min before Myozyme® injection. […] Mice were euthanized 14 days after the last Myozyme® administration.
Glycogen levels in heart, diaphragm, soleus, and quadriceps were then measured. […] Briefly, homogenates were prepared by homogenizing ˜50 mg tissue for 3-5 seconds on ice with a microhomogenizer in […] deionized water. Supernatants were heat denatured (99° C. for 10 min) to remove endogenous amyloglucosidase activity. Denatured lysates (4 μL) were then analyzed in duplicate by addition of 36 μL water with and without 10 μL of 800 U/mL of amyloglucosidase (Sigma Aldrich, St. Louis, MO) and incubated for 1 hour at 50° C. The reaction was stopped by inactivation at 100° C. for 10 min. Finally, 200 μL of glucose reagent (Sigma) was added absorbance read at 340 nm on Spectramax. A standard curve ranging from 5 μg/mL to 400 μg/mL Type III rabbit liver glycogen (Sigma) was run each day for conversion of absorbance to absolute glycogen units. Simultaneously, the amount of protein was determined in tissue homogenates using the Micro BCA Protein Assay (Pierce, Rockford, IL) following the manufacturer's instructions. The glycogen content of each sample was normalized to protein, and data were finally expressed as micrograms of glycogen per milligram of protein (μg/mg protein).

GAA KO mice [5] = test: Myozyme® tissue uptake in GAA KO mice with and without oral 1-DNJ-HCl (Example 3); assay type: in vivo, mouse; conditions: 10 mg/kg IV weekly; 7 days post injection
Experimental: Five groups of GAA KO mice were administered one of the following formulations: […]
(2) 10 mg/kg of Myozyme® IV once per week, for up to three weeks
Tissue homogenates were generated for analysis. Enzymatic activity as determined using a 4-MUG fluorogenic substrate assay.

rhGAA (e.g., Myozyme®) = target: T2, rhGAA (e.g., Myozyme®) (Homo sapiens, UniProt P10253); test: rhGAA enzyme inactivation in citrate anti-coagulated whole blood at 37° C. (Examples 7, 8); assay type: in vitro ADME; conditions: for enzyme inactivated in whole blood: no 1-DNJ-HCl
T2 construct: purchased Genzyme Corp; host or cells: Chinese hamster ovary cell line
Experimental: Aliquots were collected at 0, 2, 4, 8 and 24 hrs and centrifuged to obtain plasma. These plasma samples were then diluted in potassium acetate buffer (pH 4.0) and assayed for GAA activity using the 4-methylumbeliferyl-α-glucose (4-MUG) fluorogenic substrate. The measured GAA activity for individual samples at each time point was normalized to the 0 hr and expressed as % of initial activity. Data from 4 independent experiments were analyzed to obtain the mean (and standard deviation) and plotted versus time to assess the loss of enzyme activity over this time course.
Aliquots were collected at 0, 3 and 6 hrs and centrifuged to obtain plasma. These plasma samples were then diluted in potassium acetate buffer (pH 4.0) and assayed for GAA activity using the 4-methylumbeliferyl-α-glucose (4-MUG) fluorogenic substrate. The measured GAA activity for individual samples at each time point was normalized to the 0 hr and expressed as % of initial activity.
Moreover, since Myozyme® has a long plasma half-life (reported to be more than 3 hrs), there is a high probability that an appreciable amount of the enzyme remains in the circulation many hours after the infusion that would also be prone to inactivation.
Based on human plasma PK data, these concentrations are readily obtainable in the clinic.

[6] = rat, iv
GAA KO mice [7] = test: Repeat subcutaneous dosing of rhGAA or rhGAA + 1-DNJ co-formulation in GAA KO mice (Example 13); assay type: in vivo, mouse
Experimental: 12-week old male GAA KO mice in groups of 7 were used in the present study. Each group of mice was administered one of the following treatments:
(2) Lumizyme® alone (20 mg/kg) delivered subcutaneously (SQ); or
(3) Co-formulated Lumizyme® (20 mg/kg) and 1-DNJ (30 mg/kg) SQ.
Each of the treatments were administered to their respective treatment group for a period of 2 weeks. The treatments were administered on Monday and Thursday of each week. SQ injections were administered between the shoulder blades of each mouse receiving treatment. A total of 4 doses was administered to each study animal. Diphenhydramine was administered intraperitoneally (IP) before the 3rd and 4th doses.
rhGAA and glycogen levels were determined according to the following sampling protocol. Blood was taken from each study animal after the 4th dose for plasma pharmacokinetic analysis. GAA activity, Western blots, and 1-DNJ levels were determined for plasma samples taken 2 and 4 hours after the last SQ dose.
Tissue samples were collected to determine rhGAA uptake 3 days following the last dose of the study (i.e., 3 days post dose 4). Tissue samples included heart, diaphragm, tongue, brain, spleen, liver, biceps, triceps, quadriceps, soleus, gastrocnemius, ventral skin and dorsal skin from the SQ injection site. Tissue samples were also collected to determine glycogen concentration 14 days following the last dose of the study (i.e., 14 days post dose 4).

[8] = Solubility of Lumizyme® in the presence of 1-DNJ-HCl and excipients (Example 12); assay type: physicochemical; conditions: for Protein solubility: phosphate buffer
Experimental: A vial of Lumizyme® containing 52.5 mg protein, 210 mg mannitol, 0.5 mg polysorbate 80, 9.9 mg Na2HPO4×7H2O, and 31.2 mg NaH2PO4×H2O was dissolved in a minimal volume of water (1 mL added) yielding 1.2 mL of protein solution. Five 240-μL aliquots (each containing 10.5 mg protein) were transferred to Amicon Ultra 0.5 mL 30 kDa cutoff centrifugal filter devices and centrifuged for 10 min at 14,000×g in an Eppendorf centrifuge to obtain about 50 μL of retentate.
The original excipients present in the composition, i.e., mannitol and polysorbate 80 were exchanged for new excipients to test protein solubility (keeping the same buffer conditions). The following excipient solutions were prepared for the exchange using the original phosphate buffer:
For exchanging excipients, 5.2 mg Na2HPO4 and 27.1 mg NaH2PO4 were dissolved in 10.3 mL water to prepare the washing/excipient exchange phosphate buffer of approximately 26 mM. A volume of 8 mL of the buffer for excipient exchange was supplemented with 160 mg/mL of the small molecule ligand (to prepare excipient 1, 3, 4 and 5 solutions), while 2 mL was supplemented with 32 mg/mL ligand for excipient 2 (100 mM Arginine). Each of the excipients were dissolved in 2 mL of this buffer at the concentrations listed above.
An excipient solution was added to each separate filter device to achieve a total volume of 0.5 mL. Each filter device was centrifuged for 15 min at 14,000×g in a bench top Eppendorf centrifuge to retain approximately 25 μL. The units were re-filled with the same excipient solution to 0.5 mL and centrifuged again (this process was repeated 2 times). This procedure efficiently replaced mannitol and polysorbate 80 with excipients described above, diluting the original constituents by about 1:1000. All filtrates for each excipient were collected and examined for any protein leaks through the filter.
Each centrifugal filter device was inverted in a clean tube, and the concentrated protein solution was collected from each filter device by centrifugation for 2 min at 1000×g. The volume of each sample was determined (66 μL, corresponding to a target protein concentration of 160 mg/mL), and it was confirmed that no visible precipitate was observable in each sample. Samples were transferred back to their respective filter devices and centrifuged for an additional 5 min. Samples were then collected by inversion of the filters into clean tubes and centrifuging for 2 min at 1000×g to yield about 37 μL of retentate (corresponding to >280 mg/mL protein based on a total initial concentration of 10.5 mg protein).
The samples were vortexed and incubated for 1 hr at room temperature to equilibrate liquid and solid phases followed by centrifugation for 10 min at 14,000×g. Again, no visible precipitate was observed. Two-three 10 μL aliquots were taken from the supernatant of each sample (depending on available volume of the liquid phase), and diluted 1:1000 in two steps. Protein concentration was measured by UV absorbance at 280 nm, and the maximum protein solubility was calculated according to a highly reproducible calibration curve. The calibration curve was prepared by dissolving 6.8 mg of Myozyme® (alglucosidase alpha) lyophilized powder (containing 1.16 mg protein) in 1.16 mL of water followed by a serial dilution in deionized water. Absorbance was measured at 280 nm in a 1 cm light-pass quartz semi-micro cuvette using 0.5 mL aliquots.

[9] = 4 doses Lumizyme 20 mg/kg +/− 1-DNJ 30 mg/kg SQ at 3-4 day intervals, 3 days after the last dose

Substance: alglucosidase alfa [Myozyme®]
- rhGAA activity uptake, Biceps (GAA KO mice [1]): 10.1 nmol/mg/h
- rhGAA activity uptake, Diaphragm (GAA KO mice [1]): 7.1 nmol/mg/h
- rhGAA activity uptake, Gastrocnemius (GAA KO mice [1]): 17.9 nmol/mg/h
- rhGAA activity uptake, Heart (GAA KO mice [1]): 1.8 nmol/mg/h
- rhGAA activity uptake, Quadriceps (GAA KO mice [1]): 6.9 nmol/mg/h
- rhGAA activity uptake, Skin (GAA KO mice [1]): 27.1 nmol/mg/h
- rhGAA activity uptake, Soleus (GAA KO mice [1]): 8.0 nmol/mg/h
- rhGAA activity uptake, Tongue (GAA KO mice [1]): 12.4 nmol/mg/h
- rhGAA activity uptake, Triceps (GAA KO mice [1]): 3.9 nmol/mg/h
- stability of Myozyme® at lysosomal pH vs ER pH [2]: much more stable at lysosomal pH (5.2) than at ER pH (7.4)
- plasma half-life [3]: more than 3 hrs
- glycogen reduction in diaphragm (GAA KO mice [4]): 41±4%
- glycogen reduction in heart (GAA KO mice [4]): 93±1%
- glycogen reduction in quadriceps (GAA KO mice [4]): 18±4%
- glycogen reduction in soleus (GAA KO mice [4]): 69±3%
- Myozyme® tissue uptake (as a measure of GAA activity) over time (GAA KO mice [5]): declined at 7 days post injection

Substance: rhGAA: recombinant human acid α-glucosidase; Myozyme® in Examples 7-8, Lumizyme® in Example 13, product not named in Examples 5-6
- enzyme inactivated in whole blood (rhGAA (e.g., Myozyme®); by 4 hrs): approximately 40%
- enzyme inactivated in whole blood (rhGAA (e.g., Myozyme®); by 8 hrs): ~70%
- enzyme inactivated in whole blood (rhGAA (e.g., Myozyme®); by 24 hrs): ~100%
- enzyme activity in whole blood (rhGAA (e.g., Myozyme®); incubated with 50 μM 1-DNJ-HCl, up to 24 hrs): remained completely active
- in vivo half life of rhGAA [6]: 1.4 ± 0.2 h
- plasma rhGAA levels (GAA KO mice [7]; 4 hours after the final SQ dose): increased compared to the levels in the 2 hour samples

Substance: alglucosidase alfa [Lumizyme®]
- Protein solubility ([8]; Arginine 100 mM, 1-DNJ-HCl 32 mg/mL): 201 mg/mL
- Protein solubility ([8]; Arginine + Glutamic acid 50 mM + 50 mM, 1-DNJ-HCl 160 mg/mL): 242 mg/mL
- Protein solubility ([8]; Gamma-cyclodextrin 10% (w/v), 1-DNJ-HCl 160 mg/mL): 114 mg/mL
- Protein solubility ([8]; PEG400 5% (w/v), 1-DNJ-HCl 160 mg/mL): 158 mg/mL
- Protein solubility ([8]; Proline 250 mM, 1-DNJ-HCl 160 mg/mL): 195 mg/mL
- solubility of the protein ([8]; without the added excipients): about 80 mg/mL
- rhGAA activity uptake, Biceps (GAA KO mice [7]; [9]): 56.0 nmol/mg/h
- rhGAA activity uptake, Diaphragm (GAA KO mice [7]; [9]): 4.2 nmol/mg/h
- rhGAA activity uptake, Gastrocnemius (GAA KO mice [7]; [9]): 2.0 nmol/mg/h
- rhGAA activity uptake, Heart (GAA KO mice [7]; [9]): 1.9 nmol/mg/h
- rhGAA activity uptake, Quadriceps (GAA KO mice [7]; [9]): 2.1 nmol/mg/h
- rhGAA activity uptake, Skin (GAA KO mice [7]; [9]): 75 nmol/mg/h
- rhGAA activity uptake, Soleus (GAA KO mice [7]; [9]): 2.7 nmol/mg/h
- rhGAA activity uptake, Tongue (GAA KO mice [7]; [9]): 2.7 nmol/mg/h
- rhGAA activity uptake, Triceps (GAA KO mice [7]; [9]): 88.0 nmol/mg/h
